Data reported in patent US20170100490A1, “Prodrug Comprising a Drug Linker Conjugate” (Ascendis Pharma A/S, priority 2008, published 2017).

Columns and labels:
physchem = conditions: buffer A (phosphate buffer), pH 7.4
Experimental: In vitro linker hydrolysis and release of drug: Compounds were dissolved in buffer A (10 mM sodium phosphate, 140 mM NaCl, pH 7.4, 3 mM EDTA) or buffer B (0.1 M Acetat 3 mM EDTA, pH 4.0), and solution was filtered through a 0.2 μm filter and incubated at 37° C. Samples were taken at time intervals and analyzed by RP-HPLC at 215 nm and ESI-MS. UV-signals correlating to liberated drug molecule were integrated and plotted against incubation time. In case of identical retention times of prodrug and drug, ratio of mass signals was used to determine release kinetics.
For hydrogel conjugates, compounds were suspended in buffer A and incubated at 37° C. Samples were taken after centrifugation of the suspension and analyzed by RP-HPLC at 215 nm. UV-signals correlating to liberated drug molecule were integrated and plotted against incubation time.
Curve-fitting software was applied to estimate the corresponding halftime of release.

[1] = human, in vivo; cited from earlier work

Row | Molecule | half-life (physchem) | Plasma half-life [1]
1 | CCCCCCCCCCCC(=O)NC(CCCCNC(=O)CCOCCOCCOCCOCCOCCOCCOCCOCCOCCOCCOCCOCCNC(=O)CCN1C(=O)CC(SCCNC(=O)CN2CCN(CCNC(=O)[C@@H]3CCCC[C@@H]3C(=O)N3CCN(C4=Nc5ccccc5Oc5ccc(Cl)cc54)CC3)CC2)C1=O)C(N)=O (some centres unmarked) [Compound 5] | 22 h | 
2 | Exendin-4: GLP-1 receptor agonist peptide; high potency agonist at the glucagon-like peptide 1-(7-36)-amide receptor |  | 0.433 h
